{
  "source": "patent US20040138118",
  "key": {"[1]": {"system": "D76A mutant myostatin pro peptide", "sequence (chain, as listed by the source D76A)": "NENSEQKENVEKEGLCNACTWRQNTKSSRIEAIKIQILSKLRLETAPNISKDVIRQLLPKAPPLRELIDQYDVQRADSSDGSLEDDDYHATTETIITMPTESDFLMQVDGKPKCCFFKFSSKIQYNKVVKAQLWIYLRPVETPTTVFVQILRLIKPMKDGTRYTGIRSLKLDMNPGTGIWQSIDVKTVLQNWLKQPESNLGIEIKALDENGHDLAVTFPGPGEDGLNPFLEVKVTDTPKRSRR"}, "[2]": {"system": "myostatin pro peptide (wild type)"}},
  "data": [
    {"substance": "mammalian Tolloid (mTLD)", "values": [
      {"measurement": "proteolytic cleavage of the mutant pro peptide in the latent complex, western blot (FIGS. 3D and E)", "setting": "[1]", "value": "completely resistant to proteolysis by each of the four proteinases"},
      {"measurement": "partial proteolytic cleavage of the pro peptide in the latent complex, western blot (FIG. 3E)", "setting": "[2]", "value": "mTLD was consistently less active than the other three"},
      {"measurement": "proteolytic cleavage of free pro peptide", "setting": "[2]", "value": "All four of these proteinases also cleaved pro peptide that had been purified away from the C-terminal dimer"},
      {"measurement": "proteolytic cleavage, SDS-PAGE and western blot with anti-pro peptide antiserum", "setting": "[2]", "value": "A discrete proteolytic cleavage product of the pro peptide was detected in each reaction containing one of the four proteases"}
    ]}
  ]
}
